Columns and labels:
[1] = target: T1, native mouse MET on living mouse cells (mouse, UniProt P16056 25-1379); experiment: flow cytometry, MLP29 cells
T1 construct: whole, on cells; also called Mouse cells (MLP29)
Summary of the method: (§1)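 Chimeric anti-MET antibodies were incubated with living cells, and binding was detected by flow cytometry with phycoerythrin-conjugated anti-human IgG1. Maximal binding (EMAX) was recorded.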

[2] = target: T2, native human MET on living human cells (human, UniProt P08581 25-1390); experiment: cell-based or functional assay
[3] = target: T1, native mouse MET on living mouse cells; experiment: cell-based or functional assay
[4] = target: T2, native human MET on living human cells; experiment: flow cytometry, A549 cells
Summary of the method: as §1

[5] = target: T3, human MET-Fc chimeric protein (R&D Systems) (human, UniProt P08581 25-932); experiment: competition ELISA, hMET-Fc in solid phase, competitor 0.3 nM biotinylated hHGF
T3 construct: extracellular domain; bought (R&D Systems); also called hMET; not shown: Fc portion of human IgG1
Summary of the method: (§2)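 Immobilized human or mouse MET-Fc was exposed to 0.3 nM N-terminally biotinylated HGF of matching species with antibodies at 0–120 nM. Competition given as IC₅₀ (antibody concentration for 50% competition) and IMAX (maximum % competition at saturation).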

[6] = target: human MET ECD mutant I (mutations 6, 7, 8) (human) (UniProt P08581); experiment: ELISA, MET ECD mutant in solid phase, mAb 0-50 nM
[7] = target: human MET ECD mutant J (mutations 6, 7) (human) (UniProt P08581); experiment: ELISA, MET ECD mutant in solid phase, mAb 0-50 nM
[8] = target: T4, mouse MET-Fc chimeric protein (R&D Systems) (mouse, UniProt P16056 25-929, limits assumed); experiment: competition ELISA, mMET-Fc in solid phase, competitor 0.3 nM biotinylated mHGF
T4 construct: bought (R&D Systems); also called mMET; not shown: Fc
Summary of the method: as §2

[9] = target: T2, native human MET on living human cells; experiment: cell-based or functional assay; remark: listed apart in the source
[10] = target: T1, native mouse MET on living mouse cells; experiment: cell-based or functional assay; remark: listed apart in the source
[11] = target: T5, human MET extracellular domain (ECD) (human, UniProt P08581 25-932); experiment: ELISA, MET ECD in solid phase, mAb 0-50 nM
T5 construct: range 1-932; recombinant ECD; also called hMET; human MET ECD
Protocol: Using human MET as a template, we mutagenized each of these residues in different permutations, generating a series of MET mutants that are fully human except for specific residues, which are llama. Next, we tested the affinity of selected SEMA-binding mAbs (71D6, 71C3, 71D4, 71A3, 71G2) and PSI-binding mAbs (76H10 and 71G3) for these MET mutants by ELISA. To this end, the various MET proteins were immobilized in solid phase (100 ng/well in a 96-well plate) and then exposed to increasing concentrations of antibodies (0-50 nM) solution. […] Wild-type human MET was used as positive control.
TABLE 18 The epitopes of MET responsible for agonistic antibody binding represent residues conserved among H. sapiens, M. musculus, R. norvegicus, M. fascicularis but not among the same species and L. glama. The relevance of residues conserved among human, mouse, rat, cynomolgus monkey but not llama MET for binding to agonistic mAbs was tested by ELISA. Wild-type (WT) or mutant (MT) human MET ECD was immobilized in solid phase and exposed to increasing concentrations of mAbs in solution. […] All binding values were normalized to the WT protein and are expressed as % binding (EMAX) compared to WT MET.

[12] = target: human MET ECD mutant D (mutations 1, 2) (human) (UniProt P08581); experiment: ELISA, MET ECD mutant in solid phase, mAb 0-50 nM
[13] = target: human MET ECD mutant H (mutations 2, 4) (human) (UniProt P08581); experiment: ELISA, MET ECD mutant in solid phase, mAb 0-50 nM
[14] = target: human MET ECD mutant E (mutations 2, 3, 4) (human) (UniProt P08581); experiment: ELISA, MET ECD mutant in solid phase, mAb 0-50 nM
[15] = target: human MET ECD mutant A (mutations 1, 2, 3) (human) (UniProt P08581); experiment: ELISA, MET ECD mutant in solid phase, mAb 0-50 nM

| EMAX (% relative to control) [1] | cell scattering score, HPAF-II, 0.001 nM [2] | cell scattering score, HPAF-II, 0.004 nM [2] | cell scattering score, HPAF-II, 0.012 nM [2] | cell scattering score, HPAF-II, 0.037 nM [2] | cell scattering score, HPAF-II, 0.111 nM [2] | cell scattering score, HPAF-II, 0.333 nM [2] | cell scattering score, HPAF-II, 1.000 nM [2] | cell scattering score, HPAF-II, 3.000 nM [2] | cell scattering score, HPAF-II, 9.000 nM [2] | cell scattering score, MLP29, 0.001 nM [3] | cell scattering score, MLP29, 0.004 nM [3] | cell scattering score, MLP29, 0.012 nM [3] | cell scattering score, MLP29, 0.037 nM [3] | cell scattering score, MLP29, 0.111 nM [3] | cell scattering score, MLP29, 0.333 nM [3] | cell scattering score, MLP29, 1.000 nM [3] | cell scattering score, MLP29, 3.000 nM [3] | cell scattering score, MLP29, 9.000 nM [3] | EMAX (% relative to control) [4] | Binder | also measured |
| --- | --- | --- | --- | --- | --- | --- | --- | --- | --- | --- | --- | --- | --- | --- | --- | --- | --- | --- | --- | --- | --- |
| 124% | 0 score 0-4 | 0 score 0-4 | 0 score 0-4 | 0 score 0-4 | 0 score 0-4 | 0 score 0-4 | 1 score 0-4 | 2 score 0-4 | 3 score 0-4 | 0 score 0-4 | 0 score 0-4 | 0 score 0-4 | 0 score 0-4 | 0 score 0-4 | 0 score 0-4 | 1 score 0-4 | 2 score 0-4 | 3 score 0-4 | 130% | chimeric llama-human IgG1 mAb 76H10 (antibody, V domains shown) VH: QLQLVESGGGLVQPGGSLRVSCTASGFTFNTYYMTWVRQAPGKGLEWVSDINSGGGTYYADSVKGRFTISRDNAKNTLYLQMNSLKPEDTALYYCVRVRIWPVGYDYWGQGTQVTVSS VL: QAVVTQEPSLSVSPGGTVTLTCGLSSGSVTTSNYPGWFQQTPGQAPRTLIYNTNNRHSGVPSRFSGSISGNKAALTITGAQPEDEADYYCSLYTGSYTTVFGGGTHLTVL | IMAX (maximum % competition) [5]: 64.2%; % binding (EMAX) compared to WT MET [6]: 100%; % binding (EMAX) compared to WT MET [7]: 89%; IMAX (maximum % competition) [8]: 62.7%; protection from staurosporine, viability EC50, MCF10A [9]: > 32 nM; protection from staurosporine, viability EMAX, MCF10A [9]: 22.8%; protection from staurosporine, viability EC50, MLP29 [10]: > 32 nM; protection from staurosporine, viability EMAX, MLP29 [10]: 27.2% |
| 116% | 0 score 0-4 | 0 score 0-4 | 1 score 0-4 | 2 score 0-4 | 3 score 0-4 | 4 score 0-4 | 4 score 0-4 | 4 score 0-4 | 4 score 0-4 | 0 score 0-4 | 0 score 0-4 | 0 score 0-4 | 1 score 0-4 | 2 score 0-4 | 4 score 0-4 | 4 score 0-4 | 4 score 0-4 | 4 score 0-4 | 117% | chimeric llama-human IgG1 mAb 71G3 (antibody, V domains shown) VH: QVQLVESGGGLVQPGGSLRVSCAASGFTFSTYYMSWVRQAPGKGLEWVSDIRTDGGTYYADSVKGRFTMSRDNAKNTLYLQMNSLKPEDTALYYCARTRIFPSGYDYWGQGTQVTVSS VL: QAVVTQEPSLSVSPGGTVTLTCGLSSGSVTTSNYPGWFQQTPGQAPRTLIYNTNSRHSGVPSRFSGSISGNKAALTIMGAQPEDEADYYCSLYPGSTTVFGGGTHLTVL | IMAX (maximum % competition) [5]: 63.2%; % binding (EMAX) compared to WT MET [6]: 100%; % binding (EMAX) compared to WT MET [7]: 91.2%; IMAX (maximum % competition) [8]: 62.9%; protection from staurosporine, viability EC50, MCF10A [9]: 5.04 nM; protection from staurosporine, viability EMAX, MCF10A [9]: 65.2%; protection from staurosporine, viability EC50, MLP29 [10]: 4.85 nM; protection from staurosporine, viability EMAX, MLP29 [10]: 62.3% |
| 130% | 0 score 0-4 | 1 score 0-4 | 2 score 0-4 | 3 score 0-4 | 4 score 0-4 | 4 score 0-4 | 4 score 0-4 | 4 score 0-4 | 4 score 0-4 | 0 score 0-4 | 0 score 0-4 | 1 score 0-4 | 2 score 0-4 | 4 score 0-4 | 4 score 0-4 | 4 score 0-4 | 4 score 0-4 | 4 score 0-4 | 144% | chimeric llama-human IgG1 mAb 71G2 (antibody, V domains shown) VH: EVQLQESGGGLVQPGGSLRLSCAASGFTFSIYDMSWVRQAPGKGLEWVSTINSDGSSTSYVDSVKGRFTISRDNAKNTLYLQMNSLKPEDTAVYYCAKVYGSTWDVGPMGYGMDYWGKGTLVTVSS VL: SSALTQPSALSVSLGQTARITCQGGSLGSSYAHWYQQKPGQAPVLVIYGDDSRPSGIPERFSGSSSGGTATLTISGAQAEDEDDYYCQSTDSSGNTVFGGGTRLTVL | IMAX (maximum % competition) [5]: 97.8%; % binding (EMAX) compared to WT MET [11]: 100%; % binding (EMAX) compared to WT MET [12]: 114%; % binding (EMAX) compared to WT MET [13]: 40.2%; % binding (EMAX) compared to WT MET [14]: 41.4%; % binding (EMAX) compared to WT MET [15]: 92.1%; IMAX (maximum % competition) [8]: 91.9%; protection from staurosporine, viability EC50, MCF10A [9]: 1.06 nM; protection from staurosporine, viability EMAX, MCF10A [9]: 64.8%; protection from staurosporine, viability EC50, MLP29 [10]: 1.99 nM; protection from staurosporine, viability EMAX, MLP29 [10]: 58.3% |
